Source: the supplement of paper PMC10065799, “High-throughput profiling of sequence recognition by tyrosine kinases and SH2 domains using bacterial peptide display” (eLife, 2023)

What was measured:
AncSZ = assay: phosphorylation enrichment, bacterial display (enrichment ratio); higher = better substrate or ligand; peptides without Tyr show the background
EPHB1 = EPHB1 (UniProt P54762); assay: as above
EPHB2 = EPHB2 (UniProt P29323); assay: as above
FGFR1 = FGFR1 (UniProt P11362); assay: as above
FGFR3 = FGFR3 (UniProt P22607); assay: as above
Fer (mouse) = assay: as above
Fes = Fes (UniProt P07332); assay: as above
Fyn = Fyn (UniProt P06241); assay: as above
Hck = Hck (UniProt P08631); assay: as above
Jak2 = Jak2 (UniProt O60674); assay: as above
MERTK = MERTK (UniProt Q12866); assay: as above
c-Abl (mouse) = assay: as above
c-Src = assay: as above
Grb2 SH2 = Grb2 SH2 (UniProt P62993); assay: SH2 binding enrichment of the phosphorylated peptide, bacterial display (enrichment ratio); higher = better substrate or ligand; peptides without Tyr show the background
SHP2-C SH2 = assay: as above
c-Src SH2 = assay: as above
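Wherever SH2 binding enrichment of the phosphorylated peptide, bacterial display is given: peptide library displayed on the E. coli surface as eCPX fusions, selected cells deep-sequenced, score is each peptide's frequency after selection divided by its frequency in the input.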
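Wherever phosphorylation enrichment, bacterial display is given: 11-residue human phosphosite peptides and single-mutation variants displayed on the E. coli surface, counted by deep sequencing, each peptide's frequency after selection divided by its frequency in the unselected input library; frequency after pTyr selection over input frequency; kinase dosed for 20-30% of maximal phosphorylation in three min.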

EPHB2, sequence (P29323 whole entry, looked up): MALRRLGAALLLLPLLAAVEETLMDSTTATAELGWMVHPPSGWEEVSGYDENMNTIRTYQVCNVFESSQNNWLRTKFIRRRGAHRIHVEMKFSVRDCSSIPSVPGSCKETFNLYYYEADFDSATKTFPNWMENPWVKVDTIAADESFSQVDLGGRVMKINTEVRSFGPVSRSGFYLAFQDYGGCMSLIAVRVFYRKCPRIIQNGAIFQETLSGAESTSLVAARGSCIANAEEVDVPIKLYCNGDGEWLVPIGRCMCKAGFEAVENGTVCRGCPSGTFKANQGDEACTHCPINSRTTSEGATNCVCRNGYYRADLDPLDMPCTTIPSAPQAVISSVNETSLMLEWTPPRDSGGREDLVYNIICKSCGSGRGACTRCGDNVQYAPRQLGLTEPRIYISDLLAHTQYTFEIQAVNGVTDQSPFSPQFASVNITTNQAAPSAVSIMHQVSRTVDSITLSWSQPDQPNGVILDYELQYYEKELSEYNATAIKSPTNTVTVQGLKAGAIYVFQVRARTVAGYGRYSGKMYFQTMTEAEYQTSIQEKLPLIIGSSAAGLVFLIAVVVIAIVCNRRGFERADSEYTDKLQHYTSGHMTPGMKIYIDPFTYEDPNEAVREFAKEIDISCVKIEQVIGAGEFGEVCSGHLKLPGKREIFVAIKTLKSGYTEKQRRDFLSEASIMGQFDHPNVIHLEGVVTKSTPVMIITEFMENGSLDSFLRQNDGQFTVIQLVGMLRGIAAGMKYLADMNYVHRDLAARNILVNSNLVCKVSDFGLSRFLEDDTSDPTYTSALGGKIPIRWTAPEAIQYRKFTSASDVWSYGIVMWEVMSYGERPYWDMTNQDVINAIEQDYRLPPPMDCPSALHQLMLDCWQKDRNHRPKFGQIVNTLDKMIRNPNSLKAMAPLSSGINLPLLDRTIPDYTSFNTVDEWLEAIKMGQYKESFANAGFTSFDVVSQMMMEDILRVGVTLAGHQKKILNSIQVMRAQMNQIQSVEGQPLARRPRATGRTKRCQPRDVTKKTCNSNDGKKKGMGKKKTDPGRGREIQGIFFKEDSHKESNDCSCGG
FGFR1, sequence (P11362 whole entry, looked up): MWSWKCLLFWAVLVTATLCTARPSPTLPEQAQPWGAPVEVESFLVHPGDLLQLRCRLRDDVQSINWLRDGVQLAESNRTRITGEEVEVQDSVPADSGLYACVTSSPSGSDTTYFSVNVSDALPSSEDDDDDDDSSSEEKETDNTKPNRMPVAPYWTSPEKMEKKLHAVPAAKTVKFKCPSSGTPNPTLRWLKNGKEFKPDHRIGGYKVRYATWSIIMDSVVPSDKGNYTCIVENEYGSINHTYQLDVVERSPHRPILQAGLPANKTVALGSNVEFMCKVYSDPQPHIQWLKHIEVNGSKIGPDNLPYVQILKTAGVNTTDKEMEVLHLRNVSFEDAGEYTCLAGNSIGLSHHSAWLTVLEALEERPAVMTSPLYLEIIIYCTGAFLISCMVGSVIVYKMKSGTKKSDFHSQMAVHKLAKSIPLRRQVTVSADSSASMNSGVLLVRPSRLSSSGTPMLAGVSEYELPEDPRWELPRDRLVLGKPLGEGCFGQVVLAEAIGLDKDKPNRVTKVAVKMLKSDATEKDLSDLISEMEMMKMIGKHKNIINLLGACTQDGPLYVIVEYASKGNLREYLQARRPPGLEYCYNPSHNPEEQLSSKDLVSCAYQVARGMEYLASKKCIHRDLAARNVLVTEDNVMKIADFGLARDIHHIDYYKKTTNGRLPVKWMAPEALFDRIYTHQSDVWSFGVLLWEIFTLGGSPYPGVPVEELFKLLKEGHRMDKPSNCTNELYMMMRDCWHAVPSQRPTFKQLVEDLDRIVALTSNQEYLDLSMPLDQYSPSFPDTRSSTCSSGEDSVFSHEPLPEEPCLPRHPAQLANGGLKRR
MERTK, sequence (Q12866 whole entry, looked up): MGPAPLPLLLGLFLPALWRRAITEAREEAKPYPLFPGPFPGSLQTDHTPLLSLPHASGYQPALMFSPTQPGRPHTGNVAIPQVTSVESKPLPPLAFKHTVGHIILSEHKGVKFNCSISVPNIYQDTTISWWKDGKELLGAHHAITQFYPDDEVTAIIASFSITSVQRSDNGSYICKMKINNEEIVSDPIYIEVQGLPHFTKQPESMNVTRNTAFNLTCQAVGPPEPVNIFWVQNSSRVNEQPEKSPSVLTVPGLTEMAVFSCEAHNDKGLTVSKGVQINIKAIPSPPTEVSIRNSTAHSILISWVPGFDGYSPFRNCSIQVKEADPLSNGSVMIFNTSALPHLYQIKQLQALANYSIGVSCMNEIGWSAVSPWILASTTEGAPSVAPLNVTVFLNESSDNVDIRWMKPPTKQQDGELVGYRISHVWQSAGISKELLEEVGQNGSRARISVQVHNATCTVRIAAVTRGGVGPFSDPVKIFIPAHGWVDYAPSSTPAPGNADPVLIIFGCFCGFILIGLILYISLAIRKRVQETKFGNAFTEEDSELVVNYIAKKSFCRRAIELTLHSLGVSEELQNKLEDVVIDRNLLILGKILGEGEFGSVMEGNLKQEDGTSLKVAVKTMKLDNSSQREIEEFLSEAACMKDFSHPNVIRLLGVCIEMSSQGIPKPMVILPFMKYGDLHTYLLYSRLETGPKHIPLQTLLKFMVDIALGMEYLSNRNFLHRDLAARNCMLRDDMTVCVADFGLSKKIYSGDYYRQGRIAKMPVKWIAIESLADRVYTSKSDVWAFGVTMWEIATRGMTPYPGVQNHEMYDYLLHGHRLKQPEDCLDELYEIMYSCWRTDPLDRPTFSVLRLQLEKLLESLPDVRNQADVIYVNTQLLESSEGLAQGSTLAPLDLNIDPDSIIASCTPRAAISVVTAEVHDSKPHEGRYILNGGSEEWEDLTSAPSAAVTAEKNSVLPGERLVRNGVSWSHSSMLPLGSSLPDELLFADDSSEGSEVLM
Fes, sequence (P07332 whole entry, looked up): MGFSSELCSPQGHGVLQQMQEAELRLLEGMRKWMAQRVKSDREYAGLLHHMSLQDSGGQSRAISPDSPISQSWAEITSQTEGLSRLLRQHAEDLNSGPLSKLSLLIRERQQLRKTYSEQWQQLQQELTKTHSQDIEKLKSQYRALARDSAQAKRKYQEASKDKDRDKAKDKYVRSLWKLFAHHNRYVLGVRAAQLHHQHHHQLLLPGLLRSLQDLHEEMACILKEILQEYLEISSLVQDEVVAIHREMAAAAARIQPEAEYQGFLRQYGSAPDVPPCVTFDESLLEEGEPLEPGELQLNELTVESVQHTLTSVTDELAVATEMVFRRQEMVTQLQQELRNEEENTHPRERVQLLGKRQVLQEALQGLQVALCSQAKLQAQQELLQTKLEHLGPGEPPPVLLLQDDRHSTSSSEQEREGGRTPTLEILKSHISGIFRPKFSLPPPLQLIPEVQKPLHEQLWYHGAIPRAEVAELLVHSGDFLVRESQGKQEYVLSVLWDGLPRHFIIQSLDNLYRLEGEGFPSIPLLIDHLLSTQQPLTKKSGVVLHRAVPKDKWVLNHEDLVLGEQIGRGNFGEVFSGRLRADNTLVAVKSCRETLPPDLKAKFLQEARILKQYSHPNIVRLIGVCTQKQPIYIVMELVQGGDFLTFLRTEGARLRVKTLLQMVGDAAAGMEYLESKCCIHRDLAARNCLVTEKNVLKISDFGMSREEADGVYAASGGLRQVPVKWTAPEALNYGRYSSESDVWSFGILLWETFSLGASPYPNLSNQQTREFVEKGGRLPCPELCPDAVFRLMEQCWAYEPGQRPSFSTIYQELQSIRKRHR
Fyn, sequence (P06241 whole entry, looked up): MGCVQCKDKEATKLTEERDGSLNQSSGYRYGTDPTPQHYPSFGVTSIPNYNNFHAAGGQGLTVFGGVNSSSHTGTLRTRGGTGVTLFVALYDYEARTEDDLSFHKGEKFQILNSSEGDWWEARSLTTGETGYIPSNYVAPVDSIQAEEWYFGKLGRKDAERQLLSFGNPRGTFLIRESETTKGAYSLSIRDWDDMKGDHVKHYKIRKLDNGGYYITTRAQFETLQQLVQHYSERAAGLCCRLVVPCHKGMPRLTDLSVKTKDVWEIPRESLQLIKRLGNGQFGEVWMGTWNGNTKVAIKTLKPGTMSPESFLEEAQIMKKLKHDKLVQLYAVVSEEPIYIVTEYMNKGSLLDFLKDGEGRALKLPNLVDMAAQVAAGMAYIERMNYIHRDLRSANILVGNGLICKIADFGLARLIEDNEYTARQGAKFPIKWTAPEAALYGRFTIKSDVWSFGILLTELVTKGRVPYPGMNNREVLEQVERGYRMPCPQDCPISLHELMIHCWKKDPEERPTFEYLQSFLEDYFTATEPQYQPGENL
FGFR3, sequence (P22607 whole entry, looked up): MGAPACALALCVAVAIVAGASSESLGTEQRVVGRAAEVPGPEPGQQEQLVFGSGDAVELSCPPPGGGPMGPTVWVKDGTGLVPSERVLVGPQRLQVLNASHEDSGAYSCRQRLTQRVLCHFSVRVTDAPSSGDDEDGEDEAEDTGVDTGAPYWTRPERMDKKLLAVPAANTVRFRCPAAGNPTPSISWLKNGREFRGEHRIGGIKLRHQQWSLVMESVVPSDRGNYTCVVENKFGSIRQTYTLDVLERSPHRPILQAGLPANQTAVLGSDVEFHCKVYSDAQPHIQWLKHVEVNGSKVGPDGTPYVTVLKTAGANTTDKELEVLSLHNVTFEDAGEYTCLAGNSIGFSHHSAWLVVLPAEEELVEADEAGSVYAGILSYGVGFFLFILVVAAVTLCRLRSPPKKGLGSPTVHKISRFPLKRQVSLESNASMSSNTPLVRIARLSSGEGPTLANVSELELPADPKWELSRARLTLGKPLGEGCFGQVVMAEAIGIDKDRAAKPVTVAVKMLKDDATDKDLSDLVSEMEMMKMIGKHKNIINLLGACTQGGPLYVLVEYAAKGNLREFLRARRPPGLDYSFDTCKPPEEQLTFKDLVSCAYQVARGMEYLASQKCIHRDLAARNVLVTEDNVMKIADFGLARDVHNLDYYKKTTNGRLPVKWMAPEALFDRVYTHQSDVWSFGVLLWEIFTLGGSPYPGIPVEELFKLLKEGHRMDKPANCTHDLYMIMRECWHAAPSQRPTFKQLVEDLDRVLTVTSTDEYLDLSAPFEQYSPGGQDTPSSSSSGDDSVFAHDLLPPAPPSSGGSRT

SH2 binding enrichment (Grb2 SH2)	SH2 binding enrichment (SHP2-C SH2)	SH2 binding enrichment (c-Src SH2)	Sequence	phosphorylation enrichment (AncSZ)	phosphorylation enrichment (EPHB1)	phosphorylation enrichment (EPHB2)	phosphorylation enrichment (FGFR1)	phosphorylation enrichment (FGFR3)	phosphorylation enrichment (Fer (mouse))	phosphorylation enrichment (Fes)	phosphorylation enrichment (Fyn)	phosphorylation enrichment (Hck)	phosphorylation enrichment (Jak2)	phosphorylation enrichment (MERTK)	phosphorylation enrichment (c-Abl (mouse))	phosphorylation enrichment (c-Src)
0.864	0.577	0.607	VITDFYVDMKF [MPP4_Y567_YF]	1.23	1.31	0.824	1.42	1.36	0.925	1.32	0.457	0.624	1.27	0.52	0.727	0.503
1.28	1.16	1.06	VLALWYFFLTH [ZDHHC23_Y127_YF]	1.42	0.963	0.676	2.08	1.76	0.644	1.76	0.614	0.682	2.27	0.882	1.01	0.602
0.936	1.03	0.985	VLALWYFFLTN [ZDHHC23_Y127_H132N_YF]	1.16	0.746	0.63	2.05	1.94	0.595	1.68	0.535	0.62	1.91	0.963	0.904	0.654
3.35	0.917	2.25	VLNDAYENLTR [SYNE2_Y3255]	1.08	0.531	0.759	0.559	0.761	0.581	0.859	0.524	0.521	0.665	0.379	0.605	0.391
0.986	0.882	0.696	VLPIDYFFPPQ [AR_Y552_YF]	2.91	0.708	0.914	11.5	9.06	0.35	0.82	0.574	0.604	0.969	0.459	0.502	0.522
0.851	0.555	0.669	VMLENYSNLVS [ZFP69_Y109]	0.819	1.49	1.24	0.654	0.608	0.556	0.781	0.563	0.49	0.49	0.375	0.39	0.363
1.07	0.697	0.675	VNKIYYPDFIV [LIG3_Y768]	1.23	0.621	0.516	8.82	7.46	0.494	0.918	1.09	1.25	0.666	2.72	0.596	1.48
0.979	0.872	2.15	VNTMLYEKFTY [TEK_Y1108_T1106M]	1.23	8.2	6.33	0.856	0.902	10.4	1.03	6.38	7.18	0.811	7.49	1.82	5.53
10.3	0.88	4.76	VNYGAYINDFK [GLB1_Y488]	0.773	0.709	1.22	0.469	0.593	0.402	0.86	0.912	0.454	0.665	0.373	0.515	0.761
1.54	1.2	1.72	VNYGAYINNFK [GLB1_Y488_D491N]	0.677	0.743	1.17	0.453	0.513	0.423	0.723	0.76	0.631	0.932	0.429	0.483	0.876
0.959	0.798	0.533	VPFAQYLAMNK [HARS1_Y138_R137Q]	0.685	0.488	0.431	0.494	0.536	0.406	0.639	0.458	0.54	0.838	0.403	0.504	0.44
0.798	0.727	0.413	VQQVIYATGAL [MYH7_Y422]	0.932	0.96	0.986	0.488	0.798	0.71	1	6.98	7.57	1.38	3.08	25.3	5.97
0.813	0.754	0.583	VRFTEYETQVK [TARDBP_Y155]	0.791	0.53	1.01	0.413	0.542	0.431	0.896	0.4	0.519	0.761	0.401	0.629	0.406
0.898	0.915	0.63	VRTGIYHGGKP [PIK3CA_Y361_E365K]	0.451	0.268	0.336	0.456	0.275	0.359	0.499	0.309	0.713	0.464	0.294	0.501	0.318
0.94	1.22	0.331	VSGIPYGQPKQ [NEU1_Y251]	0.494	0.349	0.323	0.415	0.437	0.44	0.57	0.339	0.419	0.522	0.336	0.422	0.434
0.702	0.674	0.337	VSLEAYCKHKF [RXRA_Y403_A398V_YF]	0.949	0.571	0.509	0.392	0.568	0.411	1.07	0.399	0.353	1.11	0.443	0.898	0.556
1.07	1.9	0.795	VSNFNYFYHRE [KCNA1_Y413]	1.01	0.614	0.549	1.66	1.86	0.404	0.999	0.433	0.501	0.943	0.47	0.874	0.512

SH2 binding enrichment (Grb2 SH2)	SH2 binding enrichment (SHP2-C SH2)	SH2 binding enrichment (c-Src SH2)	Sequence	phosphorylation enrichment (AncSZ)	phosphorylation enrichment (EPHB1)	phosphorylation enrichment (EPHB2)	phosphorylation enrichment (FGFR1)	phosphorylation enrichment (FGFR3)	phosphorylation enrichment (Fer (mouse))	phosphorylation enrichment (Fes)	phosphorylation enrichment (Fyn)	phosphorylation enrichment (Hck)	phosphorylation enrichment (Jak2)	phosphorylation enrichment (MERTK)	phosphorylation enrichment (c-Abl (mouse))	phosphorylation enrichment (c-Src)
0.748	0.647	0.414	VSTAVYKRFPS [BEST1_Y148]	0.512	0.348	0.382	0.498	0.463	0.395	0.733	0.379	0.426	0.593	0.526	0.668	0.395
0.798	0.472	0.505	VTGWGYRKLRD [F11_Y521]	0.792	0.364	0.517	0.392	0.419	0.385	0.703	0.463	0.42	0.655	0.51	0.477	0.479
1.01	0.861	0.695	VTQEPYELYCE [CBL_Y368_Q367P]	1.65	0.763	0.621	0.554	0.794	0.86	1.13	0.761	0.717	0.999	0.461	0.74	1.24
0.656	0.48	0.571	VTQEQYELHCE [CBL_Y368_Y371H]	1.2	0.708	0.601	0.542	0.874	0.736	1.35	0.576	0.479	1.1	0.37	0.791	0.52
0.662	0.649	0.89	VTVLDYEKIGK [SYT1_Y365_D366E]	0.783	1.07	0.524	0.456	0.561	0.412	0.868	0.479	0.573	0.77	0.393	0.54	0.355
0.781	1.43	2.22	VVAHHYSFAPD [TNS3_Y601_Q600H]	0.646	0.426	0.502	0.683	0.674	0.499	0.882	0.532	0.453	0.707	0.593	0.583	0.643
1.03	0.923	0.83	VVQGIYGFHHF [UFSP2_Y285_YF]	0.886	1.75	5.04	0.693	0.502	16.3	1.62	10.1	8.93	0.846	9.74	5.3	7.39
1.06	0.757	0.588	VVQGIYGFHHH [UFSP2_Y285_Y290H_YF]	0.685	0.65	1.19	0.523	0.496	11.7	0.776	11.7	10.8	0.538	9.65	2.36	9.09
0.861	0.504	0.324	WASQRYGRELR [BAD_Y110_A107S]	0.621	0.484	0.538	0.39	0.414	0.332	0.84	0.624	0.4	0.644	0.516	0.728	0.501
1.28	0.456	0.388	WIGRKYKKVRF [F8_Y442_R437W]	0.567	0.547	0.518	0.506	0.54	0.492	0.611	0.552	0.546	0.571	0.527	0.676	0.619
0.936	0.622	0.553	WNDLDYMDSRR [GAA_Y407]	1.34	0.698	0.532	0.59	0.674	0.427	1.26	0.451	0.471	1.4	0.371	0.864	0.646
1.03	0.766	0.607	WQQQSYLDLGI [CTNNB1_Y30_S33L]	0.831	0.719	0.593	1.76	1.36	0.515	0.918	0.545	0.478	1.35	0.511	0.685	0.517
0.726	0.649	0.571	WQQQSYLDSGI [CTNNB1_Y30]	0.75	0.489	0.433	0.479	0.597	0.428	0.847	0.388	0.407	0.758	0.418	0.568	0.38
0.936	0.838	0.823	YCRHNYGVGES [HLA-DRB1_Y112_V115G]	0.686	0.492	0.473	0.549	0.534	0.361	0.913	0.487	0.383	0.65	0.582	0.602	0.552
0.797	0.723	0.404	YGLPRYRWLTH [TSPAN12_Y143]	0.841	0.5	0.628	0.572	0.475	0.411	0.765	0.492	0.543	0.659	0.492	0.512	0.387
0.94	0.629	0.68	YGSGNYNDFGN [HNRNPA2B1_Y300]	1.03	3	1.01	0.719	0.654	0.424	1.08	0.668	0.632	0.966	0.501	0.923	0.643
